Results published in the DeepSol protein solubility set.

Experiment: soluble on expression in E. coli; label from the status in PepcDB or PDB records

Question: Which “soluble on expression in E. coli” value does the source give for “MSLTRDAASITPARVRAHVFRYPVSTPVKTSFGTMHDRPAVLVEVEDSDGAVGWGEVWCNFPACGAEHRARLVETVLAPLLTARAFADPAQAFAHLEARTAVLAIQTGEPGPLAQAIAGLDIALCDLAARRAGQPLWAWLGGSGDRIGVYASGINPENPEDVVARKAAEGYRAFKLKVGFDDARDVRNALHVRELLGAATPLMADANQGWDLPRARQMAQRLGPAQLDWLEEPLRADRPAAEWAELAQAAPMPLAGGENIAGVAAFETALAARSLRVMQPDLAKWGGFSGCLPVARAVVAAGLRYCPHYLGAGIGLQASAHLLAAVPGLASPGLLEVDANDNPLRSLLSPALATLHEGRITLGGAPGLGVTPDLAALRAACAAREGHHHHHH” here?
Answer: soluble

Question: For “MSLTRHQRLFVWTVTHGFREYGVAQQKTHHNTMSPEAAIEWVVRQEPGIFIFKDLHPFISSPAVTRWLREAIASFKGTEKAIILMSPYQETPIELEKDVVVLDFALPDLVTLDGVLGQQLGKSRHALGEDSREKLLKAALGLTKDEAEKVYRKAYVKAGQLTEGEVEIVLSEKKQMIRRNEGHHHHHH”, which “soluble on expression in E. coli” value is on record?
Answer: not soluble

Question: For “MSLTTGRISELLSPNYADLNDPRPIFDWMQVIRKRAVVYVGLDALSDTEVAAAVGNSMFSDLVSVAGHIYKHGVDDGLPGSLAGGKVRINLHADEFNELIGDEFIPMVNKAGGAGVQVTAYTQTMSDIEAKIGSRAKAGQIIGNFNNLFMLRVRETATAELLTNQLPKVQIYTSTPASGANDAINNKKAAFTSSSHDQVQMTSVPMLEPAHIVGLPKGQAFALLEGGNLWKIRMPLPAVDPDEVMPKSLQELAAGMRKGQAANSEGHHHHHH”, which “soluble on expression in E. coli” value is on record?
Answer: not soluble

Question: For “MSLTTMKEIAEQTGVSISTVSLVLNGRDEGRVNPALAKLVRNKATELGYKINPLARSLRTNKTRILGFISEEVATTPYAGGIILGAQDAASAYGYMLFTVSTDGKASEENEIATLKRYGVDGFFYSKMSNRIAHVPESLSDYPVVMVDATDYENKVPSVEPDEFMIGYDATIRLLQADCKRIAYVGCAENMIAQDGRLAGYCTALQEAGRAFNPSLVCNVMNDGPALRAVNKLFDDEHPDGFFCFNDARAWYVYECAARRGLTVGKDISVVGVDNHRVFAETLEPQLTTVELPHYEMGYWSACKLISMIEGKDVDTSSCPSARASLPPLDAPIPAKIHCALLEKDSVISEGHHHHHH”, which “soluble on expression in E. coli” value is on record?
Answer: soluble

Question: With “MSLTTRVIALDLDGTLLTPKKTLLPSSIEALARAREAGYQLIIVTGRHHVAIHPFYQALALDTPAICCNGTYLYDYHAKTVLEADPMPVNKALQLIEMLNEHHIHGLMYVDDAMVYEHPTGHVIRTSNWAQTLPPEQRPTFTQVASLAETTQQVNAVWKFALTHDDLPQLQHFGKHVEHELGLECEWSWHDQVDIAHGGNSKGKRLTKWVEAQGWSMENVVAFGDNFNDISMLEAAGTGVAMGNADDAVKARANIVIGDNTTDSIAQFIYSHLIEGHHHHHH” as the sequence, how does the “soluble on expression in E. coli” value read?
Answer: not soluble

Question: Which “soluble on expression in E. coli” value does the source give for “MSLTTVLGIETSCDETGVGIARLDPDGTVTLLADEVASSVDEHVRFGGVVPEIASRAHLEALGPAMRRALAAAGLKQPDIVAATIGPGLAGALLVGVAAAKAYSAAWGVPFYAVNHLGGHLAADVYEHGPLPECVALLVSGGHTHLLHVRSLGEPIIELGSTVDDAAGEAYDKVARLLGLGYPGGKALDDLARTGDRDAIVFPRGMSGPADDRYAFSFSGLKTAVARYVESHAADPGFRTADIAAGFQEAVADVLTMKAVRAATALGVSTLLIAGGVAANSRLRELATQRCGEAGRTLRIPSPRLCTDNGAMIAAFAAQLVAAGAPPSPLDVPSDPGLPVMQGQVEGHHHHHH” here?
Answer: soluble

Question: With “MSLTVDFSRFPLAPGDRVLDLGCGAGRHAFECYRRGARVVALDQNAEEIREVAKWFAAMEEAGEAPAGATATAMEGDALALPFPDESFDVVIISEVMEHIPDDKGVLAEMVRVLKPGGRIAITVPRYGPEKVCWTLSDAYHEVEGGHIRIYRADQLLTRIREAGLKPYGTHHAHALHSPYWWLKCAFGVDNDKALPVRAYHKLLVWDIMKKPLATRVAEQALNPLIGKSFVAYATKPHLPPVDAEGHHHHHH” as the sequence, how does the “soluble on expression in E. coli” value read?
Answer: soluble

Question: Which “soluble on expression in E. coli” value does the source give for “MSLTVNNVGLRYGDKKLFEDVSIKFLPGNCYGLIGANGAGKSTFLKVLSGELDSQSGNVHIGSGERLAVLRQDHFQYDNELVLNTVIMGHERLYKIMDEKNAIYMKEDFSDEDGIRAAELEGEFAELDGWEAESDAAVLLNGLGIPTDLHGKLMKDLTGGEKVKVLLAQALFGKPDILLLDEPTNHLDIRAIHWLEEFLINFDNTVIVVSHDRHFLNKVCTHIADLDFSKIKLYVGNYDFWYESSQLAQTMMGDRNKKKEEKMKELQDFIARFSANASKSKQATSRKKMLEKITLEDIQPSSRRYPFIQFKPDREVGNDLLTVTNLSKTIDGVKILDNLSFSINRNDKVALVGDDEVAKTVLFQILAGEMEPDEGSYKWGITTSQSYFPKDNSEFFEENDMSLVEWLRQFSPEDDSEAFLRGFLGRMLFSGDEVLKKVRVLSGGEKVRCMLSKMMLSGSNVLLLDEPTNHLDLESITALNNGLEAFKGAMIFASHDHQLLQTIATRIINLSKDQFYNKEISYDEYLKEVMNVAEGHHHHHH” here?
Answer: soluble

Question: Which “soluble on expression in E. coli” value does the source give for “MSLTVSKINEKATPVKKWTVYLVQHTHTDIGYTKPQTEILSEHLRYIDYAIEYCEQTKDYTNDAKFRWTCESAWAVDEYLKNRPEEQVNKLKKYIAEGQIEVASMYFNMSEIVDENSFKTFLQPVKEFRKHGIPSALAMQNDVNGIAWCLADYLPDLGIKYLWMGEHHYKSQVPFNMPTVFQWESPSGKPILTYRADHYNTGNFWGIEQGDIQKTEPKLLHYLSELERKHYPFDAVGVQYSGYFTDNSPPSIIECKLIREWNEKYAYPKLRSATASEFMDYVTERYGDKIPAYRAAYPDWWTDGFGSAARETAASRKTHSDMTAVEGLLSMAVLKDKCLPQATHQQIEHIHESLLFYDEHTFGASESVSDPLCENSQVQWGEKSAYAWEAVKRTQMLYETSVGLLQGDLRRGKNPTLTIFNTLNWKRSEMLTVYIDFEVIPRNQFFEITDFQGHSLKVQPIRYRREGCYYAIFAEDIPPMGYKTFEIVFKQPSTDTGTITINNASIENHFYKLQLNPDKGTIQSLYDKELNCELVDSSSPWELGAFIYEKLGNRDQLAQYRLDDYNRTGLSECRIIDSSNGPIYQRILLQGKSPGTDEAFGVNLEIKLYHDTKRIELEYAIKRLPETDPSGIYVAFPFQLPEGKLAFDVQGGTVISGKNQLEGTSTDWNTVQNFVSVQNNQAQIIIGSSLIPLYQLGDINLGKFQYQKQYERPHVYSWVMNNYWNTNFKASQEGEFRWSYHLTSSVDPSNNLATKFGWSSRIPLYARVMPTGTENHKPTEYSAFHFEKDNFLMTSCTPSKEEGYILLNIREIDGKRTNLRILNEDGQTIPFTIVNAIEEKLENETSEHIFEGYQNKFIKIKREGHHHHHH” here?
Answer: soluble

Question: With “MSLTYLIKVLELFSGVGSFSISLNTLGIEHEIVGFSETRKTATQLFCKLHNKKESENLGDVRNVSAKDLDVDLLVFGSPCQSFTRAGKQGGGLKGSDTRSALMWEAVRIMEECKPKWIVWENVPDAISRKNMPNFQNYMDELDSLNYNTYYKVLNAHELGSAQKRKRLFSISIRKDIDNGKFEFLDLTREPKHLETYLENNDQPDIANEHIHSHLILGKDENGYKIKNGTKKGYLYANNGDGIDLAYVTSKARRGRVQVKACQTIMRGKTLGTINDGVLRFYSPREYWRLQEMPDELYKHVEACNFKPSTAYDVVGGVINQLHLKTVFLSLKKAFNEGHHHHHH” as the sequence, how does the “soluble on expression in E. coli” value read?
Answer: not soluble

Question: For “MSLVLRKRSMKLGDLKVHTLAIPLREPIQFSWEPFPHPVYVFSIVEVEAGGFKGYSAIEFGAAYKHFLETTVKLTIQGLDIEIEDVDARLLEVGSWAIQRLGALEVAIWDLIAKREGLPLYRLLGGGRRKVKVYASTGRLLSAEETVKMVEKYAELGIDVVKLRFRRERINEDLEVLKAVAREFSDVKISVDANQAWSYTPPYWSRKKAMKVAKELENFEVLWLEEPLWKDDVEGYRWLRENTSIEISGGELEHGIQRFRMLIEGGAFDIVQADAVYSNGIQECRKVAALAEAFNLKFMPHAWDPGLGWLANLHLAASLPEKLCPYIETPLDPLWWNEVMFGVLNGEVELEKGYAKLPEQPGLGFEPDEEKMKKFRIAEGHHHHHH”, which “soluble on expression in E. coli” value is on record?
Answer: not soluble

Question: Which “soluble on expression in E. coli” value does the source give for “MSLYIKVLSVSELNNYIKRVVDSDYILSNAQVKGEISNFKFHSSGHVYFSLKDEGGKINCIMFRSNAEKLKFIPENGMKVNVKGRVSVYVKDGAYQLYCTEITPEGRGELYEAFEKLKEKLLNEGMFSEEHKRNIPKYPKMIGVITSPTGAAIRDIINVATRRNKSVDMIICPTLVQGVNAPGELIKALDYLNNREDIDTIILARGGGSIEELWAFNDEKLAYAVYNSKKPVVTGVGHETDFTIVDFVSDRRAPTPSAAAEIAVPNINEEMNSFVSLKRALDTSIKTYIQNKCNQLEIAKRMLEKNSPEILIVNGYSSIDNFKYVLDMRIANKIKIEKEKILRYNSILKSNSPINILNKGYSIISDEIGNNISNVDKLKEPDKVHITFKDGKVNAKIDILREGHHHHHH” here?
Answer: soluble

Question: Which “soluble on expression in E. coli” value does the source give for “MSLYKAVFSDFNGTLLTSQHTISPRTVVVIKRLTANGIPFVPISARSPLGILPYWKQLETNNVLVAFSGALILNQNLEPIYSVQIEPKDILEINTVLAEHPLLGVNYYTNNDCHARDVENKWVIYERSVTKIEIHPFDEVATRSPHKIQIIGEAEEIIEIEVLLKEKFPHLSICRSHANFLEVMHKSATKGSAVRFLEDYFGVQTNEVIAFGDNFNDLDMLEHVGLGVAMGNAPNEIKQAANVVTATNNEDGLALILEEKFPEEGHHHHHH” here?
Answer: soluble

Question: With “MSLYKILLADDERIILDGMAGIIEWESLGASLIGKAQNGHEAYEKIVHKQPHIVITDVKMPGMDGLELIKKVSAVSPSVQFIVLSGFGEFEYAKEAMKYGVKHYLLKPCNEQQIISSLEEIIAELKRQDVHKKKTAHLKHELDHIRSFAADQYLEGLIAGVAQLSPPPSLAGKKIRLLILKGEQSIDAAAREALGSALTAVCSSGEWTVLAVEENAAEKVAEVFADRKMAISQAGELRHAGQLFRDTAEASGDLHGSAVISKMIRLIADELGNPNLSLKWAAKDMLFMNPDYLGKLFKQETGEKFSQYVTRVRLEHAMKQMKIRRDVSVSEIAEEIGFGDNPKYFSLVFKKYTGLTPSEFRRKQGGASAGEGHHHHHH” as the sequence, how does the “soluble on expression in E. coli” value read?
Answer: soluble

Question: For “MSLYLFGESDHYLWLPRGLLYPLQDKFKQVSVEDRRKVQRSISVEFKGELTFEQELALSDMTSKENGLLHAETGFGKTVLGAALISERKTKTIILVHNKQLLDQWLDRLNCFLTFEEEEAIRYTASGREKVIGYVGQYGGTKKWLSKLVDVVMIQSLFKLENSQSLLDEYEMMIVDECHHVSALMFEKVVAQFRGKYLYGLTATPERKNGHEPIVFQRIGEILHTADKREGHHHHHH”, which “soluble on expression in E. coli” value is on record?
Answer: not soluble

Question: With “MSLYTINIIPRVLHFKQPAGTSRGSYTTRNVWYIHLSSIECPGRVGVGECAPLPKLSCDDLPDYEQVLRSACQRLEQTGELDIESLRGYPSILFGLETALRHYETQSWALWDTPFSRGEVGIPINGLIWMGSFDRMLQQIEVKMQAGYRCIKLKIGAINFEEELALLRHIRAHYSAREIELRVDANGAFSPADAMDKLNRLAELDLHSIEQPIRAGQWEEMARLAAESPLPIALDEELIGCNALERKRELLAAIHPRYIILKPSLHGGISGGNEWIAEAEKQHIGWWITSALESNIGLNAIAQWCATFRNPLPQGLGTGLLFTDNVEMPLEIRKDCLWFCKEGHHHHHH” as the sequence, how does the “soluble on expression in E. coli” value read?
Answer: soluble

Question: For “MSLYTLYSFGTPNGFKPTIMLEELTQPYTIELIDITQGEQFNPDFLKISPNNKIPVLHDQTNDFYLMESVAILQYLAEKHRQFLPETTKEKYTIIQWCYFQAAHIGPMFGQFGHFHRYAQERVPYAMTRYADESMRLLGVMEKQLVKAPFIGGSNYTIADMAIWPWIWCFQFIYGQTIDAKQFPSLMSWYQRISERQAVRATLTAYGREGHHHHHH”, which “soluble on expression in E. coli” value is on record?
Answer: soluble
